# From paper PMC5849714, “Direct coupling of detergent purified human mGlu5 receptor to the heterotrimeric G proteins Gq and Gs” (Scientific Reports, 2018)
# B1: SNAP-mGlu5-Δ856 (FLAG-SNAP-tagged human mGlu5 receptor truncated after A856) (receptor, UniProt P41594-2 21-856, looked up)
# chain: QSSERRVVAHMPGDIIIGALFSVHHQPTVDKVHERKCGAVREQYGIQRVEAMLHTLERINSDPTLLPNITLGCEIRDSCWHSAVALEQSIEFIRDSLISSEEEEGLVRCVDGSSSSFRSKKPIVGVIGPGSSSVAIQVQNLLQLFNIPQIAYSATSMDLSDKTLFKYFMRVVPSDAQQARAMVDIVKRYNWTYVSAVHTEGNYGESGMEAFKDMSAKEGICIAHSYKIYSNAGEQSFDKLLKKLTSHLPKARVVACFCEGMTVRGLLMAMRRLGLAGEFLLLGSDGWADRYDVTDGYQREAVGGITIKLQSPDVKWFDDYYLKLRPETNHRNPWFQEFWQHRFQCRLEGFPQENSKYNKTCNSSLTLKTHHVQDSKMGFVINAIYSMAYGLHNMQMSLCPGYAGLCDAMKPIDGRKLLESLMKTNFTGVSGDTILFDENGDSPGRYEIMNFKEMGKDYFDYINVGSWDNGELKMDDDEVWSKKSNIIRSVCSEPCEKGQIKVIRKGEVSCCWTCTPCKENEYVFDEYTCKACQLGSWPTDDLTGCDLIPVQYLRWGDPEPIAAVVFACLGLLATLFVTVVFIIYRDTPVVKSSSRELCYIILAGICLGYLCTFCLIAKPKQIYCYLQRIGIGLSPAMSYSALVTKTNRIARILAGSKKKICTKKPRFMSACAQLVIAFILICIQLGIIVALFIMEPPDIMHDYPSIREVYLICNTTNLGVVTPLGYNGLLILSCTFYAFKTRNVPANFNEAKYIAFTMYTTCIIWLAFVPIYFGSNYKIITMCFSVSLSATVALGCMFVPKVYIILAKPERNVRSAFTTSTVVRMHVGDGKSSSAA
# modifications: SNAP tag labelled with a cell-impermeant red fluorophore (SNAP-Red)
# notes: metabotropic glutamate receptor 5 (mGlu5), human, truncated after A856 by a stop codon; Construct from Cisbio Bioassays; the SNAP tag is extracellular; also called SNAP-Tag C-terminal mGlu5-Δ856 receptor; hmGlu5-ΔCter-A856; source: HEK293, transiently transfected; extracted with MNG3/CHS, not purified; on cells in the cAMP assay
# B2: mGlu5-Δ856-eGFP (receptor, human, UniProt P41594-2 21-856, looked up)
# chain: QSSERRVVAHMPGDIIIGALFSVHHQPTVDKVHERKCGAVREQYGIQRVEAMLHTLERINSDPTLLPNITLGCEIRDSCWHSAVALEQSIEFIRDSLISSEEEEGLVRCVDGSSSSFRSKKPIVGVIGPGSSSVAIQVQNLLQLFNIPQIAYSATSMDLSDKTLFKYFMRVVPSDAQQARAMVDIVKRYNWTYVSAVHTEGNYGESGMEAFKDMSAKEGICIAHSYKIYSNAGEQSFDKLLKKLTSHLPKARVVACFCEGMTVRGLLMAMRRLGLAGEFLLLGSDGWADRYDVTDGYQREAVGGITIKLQSPDVKWFDDYYLKLRPETNHRNPWFQEFWQHRFQCRLEGFPQENSKYNKTCNSSLTLKTHHVQDSKMGFVINAIYSMAYGLHNMQMSLCPGYAGLCDAMKPIDGRKLLESLMKTAFTGVSGDTILFDENGDSPGRYEIMNFKEMGKDYFDYINVGSWDNGELKMDDDEVWSKKSNIIRSVCSEPCEKGQIKVIRKGEVSCCWTCTPCKENEYVFDEYTCKACQLGSWPTDDLTGCDLIPVQYLRWGDPEPIAAVVFACLGLLATLFVTVVFIIYRDTPVVKSSSRELCYIILAGICLGYLCTFCLIAKPKQIYCYLQRIGIGLSPAMSYSALVTKTNRIARILAGSKKKICTKKPRFMSACAQLVIAFILICIQLGIIVALFIMEPPDIMHDYPSIREVYLICNTTNLGVVTPLGYNGLLILSCTFYAFKTRNVPANFNEAKYIAFTMYTTCIIWLAFVPIYFGSNYKIITMCFSVSLSATVALGCMFVPKVYIILAKPERNVRSAFTTSTVVRMHVGDGKSSSAA
# notes: metabotropic glutamate receptor 5 (mGlu5), human, truncated after A856; GP64 signal peptide (AcNPV) at the N-terminus; TEV protease site between receptor and eGFP, then 10x His; Theoretical MW printed: monomer 124,784 Da; also called mGlu5-eGFP; not shown: eGFP, C-terminal, kept
# Legend:
# [1] = target: the molecule itself; test: non-reducing SDS-PAGE; SNAP-Red-labelled receptor extracted from HEK293 cells with detergent, non-purified material; non-reducing conditions; fluorescence scan of the gel
# [2] = target: the molecule itself; test: non-reducing SDS-PAGE; purified receptor from Sf9 after SEC, Coomassie-blue stained gel; bands identified by mass spectrometry; reducing reagent raised the monomer band
Protein,stoichiometry N [1],stoichiometry N [2]
B1,2,–
B2,–,2
